In publication PMC5028900:

What was measured:
GST-MeCP2 AT-hook 1 = GST-MeCP2 AT-hook 1 (UniProt P51608); assay: competition EMSA; conditions: 0.8 ug poly(dA-dT) against N1 probe; EMSA: 10 mM Tris-HCl pH 7.5, 50 mM KCl, 0.5 mM MgCl2, 0.1 mM EDTA, 0.1 mg/mL BSA, 5% glycerol; 0.5 ng probe in 20 uL; 30 min on ice; native 6% acrylamide gel
GST-MeCP2 AT-hook 2 = GST-MeCP2 AT-hook 2 (UniProt P51608); assay: competition EMSA; conditions: 0.8 ug poly(dA-dT) against N1 probe; EMSA: 10 mM Tris-HCl pH 7.5, 50 mM KCl, 0.5 mM MgCl2, 0.1 mM EDTA, 0.1 mg/mL BSA, 5% glycerol; 0.5 ng probe in 20 uL; 30 min on ice; native 6% acrylamide gel

Chain of UniProt P51608 (P51608 whole entry): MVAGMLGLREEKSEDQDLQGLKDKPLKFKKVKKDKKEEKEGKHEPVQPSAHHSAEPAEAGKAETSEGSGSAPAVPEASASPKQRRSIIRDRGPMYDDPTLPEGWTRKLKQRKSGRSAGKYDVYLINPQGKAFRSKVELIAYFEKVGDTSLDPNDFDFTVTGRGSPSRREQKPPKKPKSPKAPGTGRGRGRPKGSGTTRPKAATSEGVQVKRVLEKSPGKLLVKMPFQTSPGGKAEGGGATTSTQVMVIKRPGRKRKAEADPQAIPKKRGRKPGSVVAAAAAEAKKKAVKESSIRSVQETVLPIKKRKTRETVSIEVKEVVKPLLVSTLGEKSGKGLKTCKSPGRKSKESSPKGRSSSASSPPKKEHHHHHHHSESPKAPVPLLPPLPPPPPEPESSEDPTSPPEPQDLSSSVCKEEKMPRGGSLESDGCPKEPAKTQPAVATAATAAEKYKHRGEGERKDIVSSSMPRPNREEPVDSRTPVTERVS

In the case of poly(dA-dT), the binding signal (% of bound probe displaced) (GST-MeCP2 AT-hook 1) was 67 and the binding signal (% of bound probe displaced) (GST-MeCP2 AT-hook 2) was 20.
